Columns and labels:
[1] = test system: Cortactin (endogenous, immunoprecipitated from PDGF-stimulated cells)
[2] = target: Shp1 (on Human ProtoArray microarray) (UniProt P29350)
[3] = target: CRK (positive control substrate printed on the Human ProtoArray microarray) (UniProt P46108)
CRK (positive control substrate printed on the Human ProtoArray microarray), sequence (P46108 whole entry): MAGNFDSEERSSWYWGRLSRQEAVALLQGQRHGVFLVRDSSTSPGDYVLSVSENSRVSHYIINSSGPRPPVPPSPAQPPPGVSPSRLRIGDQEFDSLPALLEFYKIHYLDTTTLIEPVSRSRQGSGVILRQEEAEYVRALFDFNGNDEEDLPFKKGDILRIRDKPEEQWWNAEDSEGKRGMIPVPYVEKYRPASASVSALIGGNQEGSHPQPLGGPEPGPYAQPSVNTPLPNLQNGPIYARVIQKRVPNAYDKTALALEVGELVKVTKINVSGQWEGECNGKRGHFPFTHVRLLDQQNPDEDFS

Shp1 (on Human ProtoArray microarray), sequence (P29350 whole entry): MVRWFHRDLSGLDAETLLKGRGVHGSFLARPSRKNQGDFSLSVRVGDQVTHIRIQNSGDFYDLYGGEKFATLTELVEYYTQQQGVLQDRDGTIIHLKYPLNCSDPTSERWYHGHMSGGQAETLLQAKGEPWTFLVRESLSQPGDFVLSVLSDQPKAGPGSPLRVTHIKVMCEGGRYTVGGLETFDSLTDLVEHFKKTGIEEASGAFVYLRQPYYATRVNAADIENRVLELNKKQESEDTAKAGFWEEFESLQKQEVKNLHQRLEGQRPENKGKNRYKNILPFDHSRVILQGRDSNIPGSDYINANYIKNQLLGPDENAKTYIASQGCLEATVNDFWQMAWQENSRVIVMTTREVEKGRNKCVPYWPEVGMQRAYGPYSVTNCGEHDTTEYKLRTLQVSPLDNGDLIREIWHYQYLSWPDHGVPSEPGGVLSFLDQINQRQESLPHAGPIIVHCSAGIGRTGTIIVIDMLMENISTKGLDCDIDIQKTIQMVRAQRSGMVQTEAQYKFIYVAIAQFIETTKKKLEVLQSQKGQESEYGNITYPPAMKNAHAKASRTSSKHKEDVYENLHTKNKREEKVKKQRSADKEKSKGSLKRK

| Substance | PDGF-stimulated tyrosine phosphorylation of Cortactin (immunoprecipitation and anti-phosphotyrosine immunoblot) [1] | phosphorylation on Human ProtoArray microarray [2] | phosphorylation on Human ProtoArray microarray (radiolabeled ATP) [3] |
| --- | --- | --- | --- |
| ABL (endogenous, in wild-type cell line) | PDGF stimulates phosphorylation of Cortactin 3-fold in wild type cells but not in abl-/-, arg-/-, and abl-/-arg-/- |  |  |
| ARG (endogenous, in wild-type cell line) | PDGF stimulates phosphorylation of Cortactin 3-fold in wild type cells but not in abl-/-, arg-/-, and abl-/-arg-/- |  |  |
| ARG kinase (protein tyrosine kinase ARG used to probe the Human ProtoArray microarrays) |  | one of the proteins proven to be a substrate for ARG on a Human ProtoArray microarray, Shp1 | This kinase phosphorylated the control substrate CRK in every subarray |

Reference: patent US20060141529
